Results on three molecules are retold here after paper PMC3144408 (The Journal of Cell Biology, 2011).

Residue numbers refer to the chain shown, from its start. Ends that are not written are not given here.

One assay concerns MDA-MB-231 cells. In words: Colocalization of internalized β1-integrin with endogenous p120RasGAP. In kind it is cell-based, human. To be noted: integrin trafficking 45 min in the presence of primaquine; Pearson's correlation coefficient, n = 27 cells.
For assay [1], the target named is T1, Rab21 (residues 15–225), recombinant, as used in the affinity and competition measurements (human, UniProt Q9UL25 15-225).
T1 sequence (looked up): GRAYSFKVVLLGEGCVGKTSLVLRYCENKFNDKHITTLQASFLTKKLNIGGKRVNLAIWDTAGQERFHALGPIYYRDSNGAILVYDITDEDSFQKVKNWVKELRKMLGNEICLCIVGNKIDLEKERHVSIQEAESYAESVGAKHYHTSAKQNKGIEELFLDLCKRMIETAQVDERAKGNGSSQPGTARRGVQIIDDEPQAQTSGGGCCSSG
In words: fluorescence polarisation. Background: In fluorescence polarisation assays a small probe gives low polarisation when free and higher when bound to something large.

Assay [2] deals with T2, p120RasGAP GAP domain R789A, recombinant, as used in fluorescence polarisation (human, UniProt P20936 714-1047, R789A).
T2 sequence (looked up): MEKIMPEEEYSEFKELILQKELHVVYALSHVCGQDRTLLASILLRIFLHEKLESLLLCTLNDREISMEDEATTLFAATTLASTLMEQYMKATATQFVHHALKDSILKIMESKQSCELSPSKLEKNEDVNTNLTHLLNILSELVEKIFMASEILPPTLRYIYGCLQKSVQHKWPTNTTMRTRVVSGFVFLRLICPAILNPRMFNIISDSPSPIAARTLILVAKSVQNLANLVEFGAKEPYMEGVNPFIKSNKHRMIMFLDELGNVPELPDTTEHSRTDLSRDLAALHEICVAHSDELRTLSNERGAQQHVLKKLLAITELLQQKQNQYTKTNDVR
In words: fluorescence polarisation.

Assay [3] deals with T3, GST-p120RasGAP GAP domain (p120 GAP WT, residues 714–1047) (human, UniProt P20936 714-1047).
T3 sequence (looked up): T2 sequence (looked up) with A76R
In words: pull-down.

Consider `COc1cc(NC(C)CCCN)c2ncccc2c1` (stereo not shown) [primaquine], for which the “overlap (colocalization) of internalized β1-integrins with p120RasGAP” value in the assay on MDA-MB-231 cells is given as “significantly increased the overlap of integrins with p120RasGAP”. In the case of WKLGFFKRKYEKM (also: EDANS fluorophore coupled, end not given here) [EDANS-conjugated α2-integrin cytoplasmic domain peptide (α2-cons, wild type)], the Kd – broadly, the free concentration of one partner at which half of the binding sites on the other are occupied at equilibrium, for simple one-to-one binding – in assay [1] is 28 µM. Moreover, in assay [2], the binding result is given as “binds”. On to WKIGFFKRPLKKKMEKRPLKKKMEK (also: biotinylated, end not given here) [biotinylated α1-integrin cytoplasmic domain peptide], for which the binding result in assay [3] is listed as “binds”.
